Measured values from article PMC7870846, “Incorporation of sensing modalities into de novo designed fluorescence-activating proteins” (Nature Communications, 2021).
One block for each molecule: values may come before it.

How the values were obtained:
[1] = Ca2+-responsive mFAP Ca2+ titrations; type: binding
Protocol: In measuring Ca^2+ affinity of mFAPs on a Synergy Neo2 hybrid multi-mode reader (Fig. 4d, e, f and Supplementary Figs. 10c, f, i, 11c, f, i, 13c, f, i, 16b), large-scale purified proteins[49] were aliquoted in technical triplicate to a final concentration of 500 nM with 5.00 μM DFHBI in eleven serial dilutions ( 10 dilution factor) of CaCl2 (Sigma Aldrich) starting from either 900 mM or 90.0 mM CaCl2 (diluted using high-salt Tev cleavage buffer) including a twelfth condition without CaCl2. Final volumes were 200 μL in flat bottom, black polystyrene, non-binding surface 96-well microplates (Corning 3650). Fluorescence endpoints were measured using excitation wavelength λex = 484 nm and emission wavelength λem = 508 nm. Background fluorescence endpoints of wells with identical chromophore and CaCl2 concentrations lacking protein (substituted for equivalent volumes of high-salt Tev cleavage buffer) were measured in technical triplicate, averaged per condition, and subtracted from protein measurement averages of the same conditions.
For Ca^2+ titrations of EF4n_mFAP2a and EF4n_mFAP2b (Supplementary Fig. 13c), a small amount of Chelex 100 sodium form (Sigma Aldrich) was added to purified protein (produced by large-scale protein purification and SEC purification[49]) and nutated at 4 °C overnight. EF4n_mFAP2a was aliquoted in technical triplicate to a final concentration of 8.00 μM with 80.0 μM DFHBI and EF4n_mFAP2b was aliquoted in technical triplicate to a final concentration of 6.25 μM with 43.4 μM DFHBI, in eleven serial dilutions ( 10 dilution factor) of CaCl2 starting from 9.00 mM or 4.00 mM CaCl2 (diluted using high-salt Tev cleavage buffer pre-treated with Chelex 100) including a twelfth condition without CaCl2. Final volumes were 25.0 μL in flat bottom, black polystyrene, non-binding surface 96-well half-area microplates (Corning 3686) or 200 μL in flat bottom, black polystyrene, non-binding surface 96-well microplates (Corning 3650). Fluorescence endpoints were measured for EF4n_mFAP2a using excitation wavelength λex = 478 nm and emission wavelength λem = 520 nm, and for EF4n_mFAP2b using excitation wavelength λex = 484 nm and emission wavelength λem = 508 nm. Background fluorescence endpoints of wells with identical chromophore and CaCl2 concentrations lacking protein (substituted for equivalent volumes of high-salt Tev cleavage buffer) were measured in technical triplicate, averaged per condition, and subtracted from protein measurement averages of the same conditions. For non-linear least squares fitting to obtain Kd values, means were fit to a single-binding site isotherm function where Ca^2+-binding sites were modeled independently with a Hill coefficient of 1.

[2] = In vitro chromophore titration with DFHBI (fluorescence, single-binding site isotherm fit)
Protocol: Fluorescence endpoints were measured on a Synergy Neo2 hybrid multi-mode reader (BioTek) in flat bottom, black polystyrene, non-binding surface 96-well microplates (Corning 3650). In measuring chromophore-binding affinities (Fig. 1d, e), mFAP2, mFAP2a, and mFAP2b, and mFAP10 were produced by large-scale protein purification and SEC purification. Proteins were aliquoted in eight technical replicates in 200 μL final volumes to 20.0 nM final concentration in ten serial dilutions ( 10 dilution factor) of DFHBI starting from 31.6 μM DFHBI or 31.6 μM DFHBI-1T final concentrations, including an eleventh condition without chromophore. Fluorescence was excited at λex = 468 nm and fluorescence emission measured at λem = 530 nm. Background fluorescence endpoints of wells with identical chromophore concentrations but purified protein replaced with an identical volume of high-salt Tev cleavage buffer were measured, and fluorescence endpoints subtracted from those measured with protein. Background-subtracted data were averaged and the means normalized from 0 to 1 and fit to a single-binding site isotherm function using non-linear least squares fitting to obtain a fitted Kd value (Table 1), and the fit scaled to the maximum mean value (Fig. 1d, e).

[3] = Fluorescence intensity assays of mFAP variants; type: biochemical
Protocol: To measure fluorescence intensities of the phenolate form of chromophores, fluorescence was measured on a Synergy Neo2 hybrid multi-mode reader (BioTek) in flat bottom, black polystyrene, non-binding surface 96-well microplates (Corning 3650). Fluorescence intensity was measured in triplicate by exciting at λex = 484 nm and measuring fluorescence emission at λem = 505 nm (or λem = 511 nm for clones harboring the W27 mutation) (Supplementary Fig. 1g, h). The W27 mutation redshifts the peak emission wavelength from λem = ~505 nm to λem = ~511 nm, presumably due to the W27 indole ring donating a hydrogen bond to the imidazolinone moiety of the deprotonated state of DFHBI, which stabilizes the chromophore conjugated π–electron system in the excited state causing the redshift in emission. Fifteen microliters of small-scale purified protein[49] was combined with 185 μL of Na2HPO4-citrate (pH 7.36) buffer supplemented with 150 mM NaCl and 108 nM DFHBI for a final concentration of 100 nM DFHBI. In measuring the excitation spectra from λem = 525 nm of each clone in triplicate (Supplementary Fig. 1i), 30.0 μL of large-scale purified protein[49] was combined with 170 μL of 25.0 mM Tris (pH 8.00) supplemented with 100 mM NaCl and 914 nM DFHBI for a final concentration of 7.77 μM protein and 777 nM DFHBI. In measuring the fluorescence intensity at λex = 484 nm and λem = 509 nm of each clone in triplicate (Supplementary Fig. 1j), 30.0 μL of large-scale purified protein[49] was combined with 170 μL of 25.0 mM Tris (pH 8.00) supplemented with 100 mM NaCl and 653 nM DFHBI for a final concentration of 5.55 μM protein and 555 nM DFHBI. In measuring fluorescence intensity at λex = 468 nm and λem = 530 nm of each clone in technical triplicate (Supplementary Fig. 1k), 24.0 μL of 35.4 µM large-scale purified protein[49] was combined with 1.00 μL of 1.25 µM DFHBI or 1.00 μL of 1.25 µM DFHBI-1T (Lucerna) (from […] chromophore stock solutions dissolved in 0.5% DMSO and 99.5% high-salt Tev cleavage buffer [25.0 mM Tris, 100 mM NaCl, pH 8.00]) for final concentrations of 34.0 μM protein and 50.0 nM chromophore. The mFAP9–DFHBI complex had ~1.1-fold the fluorescence intensity of the mFAP10–DFHBI complex, and the mFAP9–DFHBI-1T complex had ~0.75-fold the fluorescence intensity of the mFAP10–DFHBI-1T complex (Supplementary Fig. 1k). In collecting fluorescence emission spectra by exciting fluorescence at λex = 484 nm and collecting fluorescence emission at λem = 495–650 nm (Supplementary Fig. 6b), and in measuring fluorescence endpoints in techincal triplicate at unique peak excitation and emission wavelengths (Supplementary Fig. 6c), 195 μL of large-scale purified protein[49] was combined with 5.00 μL of 25 mM Tris (pH 8.00) supplemented with 100 mM NaCl and 40.0 μM DFHBI for a final concentration of 10.0 μM protein and 1.00 μM DFHBI.
In measuring fluorescence intensity of small-scale purified proteins[49] (Supplementary Table 1), wells were excited at λex = 488 nm for DFHBI and DFHBI-1T and λex = 505 nm for DFHO, and fluorescence emission measured at λem = 510 nm for DFHBI and DFHBI-1T and λem = 545 nm for DFHO. […]

[4] = Photophysical characterization: absorbance, excitation/emission spectra, extinction coefficients, quantum yields; type: physicochemical
Protocol: Protein preparation: mFAP2a, mFAP2b, and mFAP10 were produced by large-scale protein purification and SEC purification, and dialyzed overnight into DPBS that was adjusted to pH 7.40 using NaOH.
Chromophore preparation: DFHBI (Lucerna) and DFHBI-1T (Lucerna) were dissolved to 20.0 mM in 100% DMSO, and diluted in DPBS (pH 7.40) to measure absorbances on a Jasco V-750 spectrophotometer at peak absorbance wavelengths (417 nm for DFHBI and 422 nm for DFHBI-1T). Following background subtraction of identical buffer without chromophore, Beer’s Law was used to calculate the molar chromophore concentrations of the stock solutions using previously reported extinction coefficients.
Preparation of protein–chromophore complexes: For quantum yield measurements, 1.00 μM, 836 nM, or 919 nM chromophore solutions in DPBS (pH 7.40) at 4.00 mL final volumes were prepared for the following eight conditions: DFHBI only, DFHBI-1T only, 43.5 µM 6xHis-mFAP10 with DFHBI, 43.5 µM 6xHis-mFAP10 with DFHBI-1T, 134 μM 6xHis-mFAP2a with DFHBI, 134 μM 6xHis-mFAP2a with DFHBI-1T, 206 μM 6xHis-mFAP2b with DFHBI, and 206 μM 6xHis-mFAP2b with DFHBI-1T.
Extinction coefficients: Absorbance spectra of protein–chromophore complexes were first measured with a Thermo Scientific BioMate 3S UV–Vis Spectrophotometer (1 nm interval, 800 nm min^−1). The extinction coefficients were then calculated using Beer’s Law:12 A=ε⋅b⋅c, where A is peak absorbance, ε is extinction coefficient, b is path length (1 cm), and c is concentration (1.00 μM, 836 nM, or 919 nM).
Relative quantum yield: A Perkin-Elmer LS-B Luminescence Spectrophotometer (10 nm bandwidth, 1 nm interval, 100 nm min^−1) was used. The fluorescence emission spectra of the protein–chromophore complexes (in DPBS, pH 7.40) and reference dye Acridine Yellow G (in methanol) were first obtained, and the quantum yield was then calculated using the equation[53]:13 ϕc=ϕr⋅1−10^−Ar(λex)/1−10^−Ac(λex)⋅∫Fc(λ)⋅dλ/∫Fr(λ)⋅dλ⋅nc2/nr2, where ϕ is quantum yield, A(λex) is absorbance at the excitation wavelength λex ( λex = 440 nm), F is fluorescence emission, n is refractive index of the solution (1.3350 for DPBS at pH 7.40 and 1.3284 for methanol), and the subscripts “c” and “r” refer to the protein–chromophore complex measured and the reference dye, respectively. […]
Absolute quantum yield: An integrating sphere instrument (Hamamatsu C9920-12) (6 nm excitation bandwidth, 1 nm interval) and a high-sensitivity photonic multi-channel analyzer (Hamamatsu C10027-01) were used to measure a light emission spectrum. Absolute quantum yields were measured for solutions of protein–chromophore complexes in DPBS (pH 7.40) in which ≥95% of the total chromophore was occupying the protein-binding pocket (Table 1). […]

- Ca2+-responsiveness / allostery between DFHBI and Ca2+ binding ([1]; Ca2+ titration with excess DFHBI): positive allostery
- Kd ([1]; excess DFHBI compared to protein, Hill coefficient of 1): 2300 µM
B1: EF1p2_mFAP2b: positively allosteric Ca2+-responsive mFAP, one EF-hand motif (protein)
chain: SRAAQLLPGTWQVTMTNEDGQTSQGQWHFQPRSPYTMDIVAQGTISDGRPIVGYGKATVKTPDTLDIDITYPSLGNIKAQGQITMDSPTQFKWDAHYKGDKDGDGYISAAEAAAQGLTGTLQRQE

- higher affinity for DFHBI than DFHBI-1T [2]: ~ 39 fold
B2: mFAP2a: mFAP2 variant, "a" for affinity (protein)
chain: SRAAQLLPGTWQATFTNEDGQTSQGQWHFQPRSPYTMDIVAQGTISDGRPIVGYGKATVKTPDTLDIDITYPSLGNIKAQGQITMDSPTQFKWDATTKGENDFHGRLTGTLQRQE
- brighter fluorescence than mFAP2b ([3]; low-DFHBI concentration (555 nM)): ~ 1.3 fold
- brighter fluorescence with DFHBI-1T than DFHBI [4]: ~ 2.5 fold

B3: mFAP2.3: brightest variant of loop7 library (protein)
chain: SRAAQLLPGTWQVTMTNEDGQTSQGQMHFQPRSPYTMDVVAQGTISDGRPIVGYGKVTVKTPDTLDVDITYPSLGNIKAQGQITMDSPTQFKFDATTKGENDFHGRLTGTLQRQE
- increase in fluorescence intensity from the phenolate form of DFHBI from mFAP2.2 ([3]; pH 7.36): ~ 1.1 fold

B4: mFAP3: brightest DFHO-binding variant (protein)
chain: SRAAQLLPGTWQATFTNEDGQTSQGQWHFQPRSPYTMDIVAQGTISDGRPIVGYGKATVKTPDTLDIDITWPSLGNIKGQGQITMDSPTQFKWDGTTKGENDFHGRLTGTLQRQE
- fluorescence intensity with DFHO, lower (dimmer) than mFAP2b with DFHBI ([3]; 10.0 µM DFHO vs 10.0 µM DFHBI): ~ 10 fold

- higher affinity for DFHBI than DFHBI-1T [2]: ~ 2.6 fold
B5: mFAP10: variant from the IN2 combinatorial library (protein)
chain: SRAAQLLPGTWQATFTNEDGQTSQGQIHFQPRSPYTMDIVAQGTISDGRPIVGYGKATVKTPDTLDIDITYPSLGNIKAQGQITMDSPTQFKFDATTKGENDFHGRLTGTLQRQE
- brighter fluorescence with DFHBI-1T than DFHBI [4]: ~ 12 fold
